According to the nanobody polyreactivity screen of Harvey et al. (2022):

Assay: yeast display, Sf9 membrane polyspecificity reagent, FACS + sequencing; frameworks hold sequencing errors
How it was run: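 Synthetic nanobody libraries on Saccharomyces cerevisiae BJ5465 were galactose-induced for 36–48 hours, stained 1 hour at 4 °C with 10% biotinylated, detergent-solubilized Sf9 membrane reagent and enriched on streptavidin microbeads. FACS then separated cells into low and high (top ~1%) gates by anti-HA (expression) and streptavidin (reagent binding) fluorescence. Genes were colony-PCR amplified, MiSeq 2 × 250 sequenced and CDR-length filtered. A clone's polyreactivity label is that of its gate of origin.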

Sequence	polyreactivity (PSR sort gate)
QVQLVESGGGLDQAGGSLRLSCAASGSTFYSYDMGWYRQAPGKEREMVAAISSGGSTYYADSVKGRFTISRDNAKNTVYLQMNSLKPEDTEVYYCAAKRRATTGYRYDYWGQGTQGTVSS	high polyreactivity
QVQLVESGGGLDQAGGSLRLSCAASVRIFEENAMGWSRQAPGKEREFVAVITSSGGGTYYADSVKGRFTISRDKAKNTVYLQMNSLKPEDTAVYYCARADKLHTRGWGRWGSGSYSWGQGTQVTVSS	low polyreactivity
QVQLVESGGGLDQAGGSLRLSCAATGGTFTRKAMGWYRQAPGKERELVASITSGDTTNYADSVKGRFTISRDNAKNTVYLQMNSLKPEDTAVYYCATDTPTDRYAAYPHDPYYYWGQGTQVTVSS	low polyreactivity
QVQLVESGGGLDQAGGSLRLSCADSGSLSDWNAMVSYRQAAGKEREWVAAINWSGDTTYYADSVKGRFTISRDNAKNTFYLQMNCLNPEDTAVYYCAAELVVDYDWYDYWGQGTQVTVSS	high polyreactivity
QVQLVESGGGLDQAGGSLRLSCDASGSSFRKYAMVLYRQAPGKEREFVAAISSSGGRTYYADSVKGRFTISRDNAKYTVYLQMNSLKPEDTSVYYFADDVYSDRYDYWGQGTQVTVSS	high polyreactivity
QVQLVESGGGLDQAGGSLRLSCPASGNIFTGNAMGWYRQAPGKEREFVAAISSVGGSTYYADSVKGRFTISRDNAKNTVYLQMNSLKPEDTAVYYCAASRVRYSYGYPYYYWGQGTQVTVSS	high polyreactivity
QVQLVESGGGLDQAGGSLRLTCAASGSIFVYNAMGWYRQAPGKEREFVAAITWRGGRTYYADSVKGRFTISRDNAKNTVYLQMNSLKPEDTAVYYCAADGGSTLDYYWGQGTQVTVSS	low polyreactivity
QVQLVESGGGLDQAGGSLRLTCAASGSTFRVYAKGSYSQAPRKERELGAAISRSGGSTTDYADSVKGRFTISRENAKNTVYLQINSLNPEDTAVYFCSDRDYKVQKIYDYWGLGTQVTVSS	low polyreactivity
QVQLVESGGGLDQAGGSLSLSCAASGYTYRLYAMGWYRQAPGKERELVAAITWRGGSTYYADSVKGRFTISRDNAKNTVYLQMNSLKPEDTAVYYCAAEFYIGRQGNYWGLGTQVTVSS	high polyreactivity
QVQLVESGGGLDQAGVRLRLSCAASGRIVSSYAMGWYRQAPGKERELVAAIRRGGGSTSYADSVKGRFTISRDNAKKTVYLQMNSLKPEDTAVYYCAADSPRGQVHYIGGYWGQGTQVTVSS	low polyreactivity
QVQLVESGGGLDQAGVSLRLSCAASGNIFSWNTMGWYRPAPGKERELVAAITFRGTRTFYADSVKGRFTISRDNAKNNVYLHMNSLKPEDTAVYYSAARYYYSYSLGYDYWGQGTQVTLSS	high polyreactivity
QVQLVESGGGLDQARGSLRLSCAASGFIFQIYAMGWYRQAPGKERELVAAITSRAGSTYYADSVKGRFTISRDNAKNTVYFQMNSLKPEDTAVYFCNKVFFLPTSRAYEYWGQGTQVTVSS	high polyreactivity
QVQLVESGGGLDQARGSLRLSCAASGSIFGENAMGWYRQAPGKERELVAAISTSGGTTYYADSVKGRFTISRDNAKNTVYLQMNSLKPEDTAVYYCAKPYTSFSPYDYWGQGTQVTVSS	low polyreactivity
QVQLVESGGGLDQARGSLRLSCAASGSITTFYAMGWSRQAHGKERELVAAISSSGGSTYYADSVKGRFTISRDNAKNTVYLQMNSLKPEDTAVYSCAAKGYPSRYSYGWYNYWGQGTQVTLSS	high polyreactivity
QVQLVESGGGLDQARGSLRLSCAASGSTFKSYVMGWYRQAPGKVRELVAAISQSGGNTNYADSVKGRFTISRDNAKNTVYLQMNSLKPEDTAVDYCAADVLGTTTTVGGFNYWGQGTQVTVSS	low polyreactivity
QVQLVESGGGLDQAVGSLRLSCAASGSIFKPYAMGWYRQAPGKERELVAGITAGGGSTYYADSVKGRFTISRDNAKNTVYLQMNSLKPEDTAVYYCSVDPYNIFTDDIVENDYWGQGTQVTVSS	low polyreactivity

Sequence	polyreactivity (PSR sort gate)
QVQLVESGGGLDQEGGSLRLSSAASGRTFRGYAMGWYIQAPGKEREIVDAISRGTVGTYYADSVKGRFTISRDNAKNTVYLQMISLKPEDTAVYYCAADRFANFSNLRLGYYSWGQGTQLTVSS	low polyreactivity
QVQLVESGGGLEQAGGSLRLSCAASGRTLPIYAMGWYIQAPGKERELVAAISWSGASTYADSVKGRFTISRDNAKNTVYLQMTSLKPEETAVYYCAAYYVYWYSSYGYGYWGQGTQVTVSS	low polyreactivity
QVQLVESGGGLFHAGGSLRLSCAASGSTFTDDDMGWYRQAPGKERELVAAMSWSGGSTYYADSVKGRFTISRDNAKNTVYLQMNSLKPDDTADYYCAFRYHGYDYWGQGTQVTVSS	high polyreactivity
QVQLVESGGGLFKAGGSLRLSCAASGSTLPGYAMGWYRQAPGKERELVAAITGSGGRTYYADSVKGRFTISRDNAKYTVYLQMNSLKPEDTAVYYCGRGQRVYRSQGDYWGQGSQVTVSS	high polyreactivity
QVQLVESGGGLFQAGGNLRLSCAASGRTFYPNAMGWYRQAPGKERELVAGIRSSGDSTYYADSVKVRFTISRDNAKNTVYFQMNSLKPEDTAVYYCNRDLTPSYDYWGQGSQVTVSS	low polyreactivity
QVQLVESGGGLFQAGGRLRLSCAASGITFVYYAMGWSRQAPGKERELVAAISWGGGSTYYADSVKGRFTISSDNAKNTVYLQMNSLKPEDTAVYYCAADAYVNATPEVSAMGYWGQGTQVTVSS	low polyreactivity
QVQLVESGGGLFQAGGSHRLSCAASGSTFTPYAMGWYRQAPGKEREFVARISWTGGSTYYADSVKGRFTISRDNAKNTVYLQMNSLKPEDTAVYYCAARYGYSYYRRDYWGQGTQVTVSS	high polyreactivity
QVQLVESGGGLFQAGGSILLSCPASGSTFDNYSMGWYRQAPGKERELVAGISWSGGSTFYADSVKGRFTISRDNAKYTVYLQMNSLKTEDTAVYYCAARIRYLDVRDNDNYYWGQGTQVTVSS	low polyreactivity
QVQLVESGGGLFQAGGSLRISCAASGLTFKINAMGWYRQAPGKERELVAAISSGTSTNYADSVKGRFTISRDNAKNTVYLQMNSLKPEDTAVYYCAARGFWGVAYRYYYWGQGTQVTVSS	high polyreactivity
QVQLVESGGGLFQAGGSLRISCAASGSTFLVNAMGWYRQAPGKEREFVAAITWTGGSTYYADSVKGRFTISRDNAKNSVYLQMNRLKPEDTAVYYCNTDWTYYGDQYRRGGYWGQGTQVTVSS	low polyreactivity
QVQLVESGGGLFQAGGSLRISCAASGTFVTYMGWYRQAPGKERELVAAIRNGGSTNYADSVKGRFTISRDNAKNTVYLQMNSLKPDDTAVYYCAARVTYSRGYRGGSRNKYDYWGQGTQVTLSS	low polyreactivity
QVQLVESGGGLFQAGGSLRITCAASGITFSYNAMGWYRQAPGKVRELVAGITWSGGSTYYADSVTGRFTISRDNAKNTVYLQMYSVKREDTAVYYCAASRSFPGYGLYYYWGQGTQVTVSS	low polyreactivity
QVQLVESGGGLFQAGGSLRLICAASGFIFGGSDMGWYRQAPGKERELVAAISRSGGSTYYADYVKGRFTISRDNAKNTVYLQMNSMKREDTAVYYCNSVPRRQGFNYLGQGTQVTVSS	high polyreactivity
QVQLVESGGGLFQAGGSLRLRCAASGFIFGVNAMGWYRQAPGKERELVAAITSTGGRTYYADSVKGRFTISRDNAKNTVYLQMNSLKPVDTAVYFCARYQTGGYGYWGQGTQVTVSS	high polyreactivity
QVQLVESGGGLFQAGGSLRLSCAASGFIFGQNAMGWYRQAPGKERELVAAIDWTGGRTYYADSVKGRFTISRDNAKNTVYLQMNSLKPEDTAVYYCAADGVWYADSPYSIHYGYWGQGTQVTVSS	low polyreactivity
